# In article doi:10.1101/2024.03.23.586376 (bioRxiv, 2024):
# Biological target: RagC (human (endogenous in H1HeLa), UniProt Q9HB90 1-399)
# Test: co-IP
# RagC, sequence (Q9HB90 whole entry): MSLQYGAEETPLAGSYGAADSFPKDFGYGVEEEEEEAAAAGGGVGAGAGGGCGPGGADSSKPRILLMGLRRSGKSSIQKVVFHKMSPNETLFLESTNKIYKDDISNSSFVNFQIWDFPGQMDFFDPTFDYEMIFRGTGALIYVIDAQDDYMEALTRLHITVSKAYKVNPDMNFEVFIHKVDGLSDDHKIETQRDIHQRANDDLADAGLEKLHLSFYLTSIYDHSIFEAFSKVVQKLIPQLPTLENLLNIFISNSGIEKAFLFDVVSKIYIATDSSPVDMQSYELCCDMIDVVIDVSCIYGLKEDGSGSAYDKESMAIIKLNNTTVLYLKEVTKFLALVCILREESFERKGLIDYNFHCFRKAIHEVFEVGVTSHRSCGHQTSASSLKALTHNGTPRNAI
Binder,"TFEB/RagC ratio in the co-IP (densitometry), EV-D68-infected cells","TFEB/RagC ratio in the co-IP (densitometry), mock-infected cells"
"wild-type TFEB (transcription factor EB), C-terminal GFP-tagged construct (natural protein, UniProt P19484 1-476, looked up) MASRIGLRMQLMREQAQQEEQRERMQQQAVMHYMQQQQQQQQQQLGGPPTPAINTPVHFQSPPPVPGEVLKVQSYLENPTSYHLQQSQHQKVREYLSETYGNKFAAHISPAQGSPKPPPAASPGVRAGHVLSSSAGNSAPNSPMAMLHIGSNPERELDDVIDNIMRLDDVLGYINPEMQMPNTLPLSSSHLNVYSSDPQVTASLVGVTSSSCPADLTQKRELTDAESRALAKERQKKDNHNLIERRRRFNINDRIKELGMLIPKANDLDVRWNKGTILKASVDYIRRMQKDLQKSRELENHSRRLEMTNKQLWLRIQELEMQARVHGLPTTSPSGMNMAELAQQVVKQELPSEEGPGEALMLGAEVPDPEPLPALPPQAPLPLPTQPPSPFHHLDFSHSLSFGGREDEGPPGYPEPLAPGHGSPFPSLSKKDLDLMLLDDSLLPLASDPLLSTMSPEASKASSRRSSFSMEEGDVL",0.4,1.04
"Δ30-TFEB, mutant TFEB construct lacking the first 30 amino acids (RagC binding site), C-terminal GFP-tagged (domain or fragment, UniProt P19484 31-476, looked up) MHYMQQQQQQQQQQLGGPPTPAINTPVHFQSPPPVPGEVLKVQSYLENPTSYHLQQSQHQKVREYLSETYGNKFAAHISPAQGSPKPPPAASPGVRAGHVLSSSAGNSAPNSPMAMLHIGSNPERELDDVIDNIMRLDDVLGYINPEMQMPNTLPLSSSHLNVYSSDPQVTASLVGVTSSSCPADLTQKRELTDAESRALAKERQKKDNHNLIERRRRFNINDRIKELGMLIPKANDLDVRWNKGTILKASVDYIRRMQKDLQKSRELENHSRRLEMTNKQLWLRIQELEMQARVHGLPTTSPSGMNMAELAQQVVKQELPSEEGPGEALMLGAEVPDPEPLPALPPQAPLPLPTQPPSPFHHLDFSHSLSFGGREDEGPPGYPEPLAPGHGSPFPSLSKKDLDLMLLDDSLLPLASDPLLSTMSPEASKASSRRSSFSMEEGDVL",0.22,0.18
